Data taken from article PMC8955606 (Toxins, 2022).

T1: PA83 peptide PLYISNPNY (domain IV) (Bacillus anthracis)
T1 chain: PLYISNPNY

T2: PA83 region YTVDVKNKRTFLSPWI (domain I) (Bacillus anthracis)
T2 chain: YTVDVKNKRTFLSPWI


Legend:
Conditions in all cases: both partners purified
[1] = biological target: Protective Antigen PA83 (83 kDa) of Bacillus anthracis (Bacillus anthracis, strain of …, UniProt P13423); assay: SPR
[2] = biological target: T1, PA83 peptide PLYISNPNY (domain IV); assay: peptide or protein array
[3] = biological target: T2, PA83 region YTVDVKNKRTFLSPWI (domain I); assay: peptide or protein array

Chain of Protective Antigen PA83 (83 kDa) of Bacillus anthracis (P13423 whole entry, looked up): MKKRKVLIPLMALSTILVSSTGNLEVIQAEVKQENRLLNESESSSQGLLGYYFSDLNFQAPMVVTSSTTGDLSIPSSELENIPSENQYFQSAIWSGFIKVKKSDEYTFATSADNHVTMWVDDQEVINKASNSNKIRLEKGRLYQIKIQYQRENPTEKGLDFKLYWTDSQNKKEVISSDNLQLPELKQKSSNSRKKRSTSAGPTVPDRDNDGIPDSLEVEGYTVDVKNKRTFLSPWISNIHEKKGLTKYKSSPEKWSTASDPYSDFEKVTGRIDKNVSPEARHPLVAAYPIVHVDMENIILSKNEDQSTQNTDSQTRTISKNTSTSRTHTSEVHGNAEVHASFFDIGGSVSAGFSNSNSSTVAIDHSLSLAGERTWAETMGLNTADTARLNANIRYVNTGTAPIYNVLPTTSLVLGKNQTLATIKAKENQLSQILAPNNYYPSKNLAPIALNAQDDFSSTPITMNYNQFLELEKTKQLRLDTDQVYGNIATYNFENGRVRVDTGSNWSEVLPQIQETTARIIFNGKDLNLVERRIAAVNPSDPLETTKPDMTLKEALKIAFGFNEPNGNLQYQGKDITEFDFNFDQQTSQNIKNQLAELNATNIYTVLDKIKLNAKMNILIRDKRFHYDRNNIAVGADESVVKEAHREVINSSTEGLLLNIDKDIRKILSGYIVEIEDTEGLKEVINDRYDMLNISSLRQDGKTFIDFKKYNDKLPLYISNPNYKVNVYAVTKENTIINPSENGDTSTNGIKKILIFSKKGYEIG

Binder | Kd [1] | binding result [2] | binding result [3]
35PA83 6.20 G1 (antibody, V domains shown, also called mutant that combined the 10 selected mutations; source: expressed and purified by Proteogenix) VH: QVQLQESGPGLVKPSETLSLTCTVSGDSISGGYYWGWIRQSPGKGLEWIGLIYGSTADTRYNPSLKGRVTISKDTSKNQFSLKLSSVTAADTAVYYCARSGYNFWSGEYYGLDSWGQGTLVTVSS VL: AIQLTQSPSSLSAYVGDRVTITCHASQGINSWLAWYQQKPGKAPKLLIYKASSLLSGVPSRFSGSGSGTDFTLTISSLQSEDFATYYCLQYDSAPLAFGPGTKLEIK | 0.316 nM | – | –
35PA83 6.20 (parental antibody of the super-humanization) (antibody, V domains shown, also called the parental antibody; 35PA80 6.20) VH: QVQLQESGPGLLKPSETLSLTCAVSGDSISGGYYWSWIRQSPGKGLEWIGLIYGSTADTRYNPSLKGRVTISKDTSKNQLSLQLRSVTAADTAVYYCARSGYNFWSGEYYGLDSWGQGAVVTVSS VL: AIQLTQSPSSLSAYVGDKVTITCHASQGINSWLAWYQQKPGKAPKLLIYKASSLLSGVPSRFSGSGSGTDYTLTISSLQSEDFASYYCLQYDSAPLAFGPGTKLDIK | 0.18 nM | – | –
35PA83 6.20 IgG1 (GMP batch) (antibody, V domains shown, also called IgG 35PA83 6.20; 35PA83 6.20 mAb; source: rat YB2/0-E cell line (LFB), GMP conditions) VH: QVQLQESGPGLLKPSETLSLTCAVSGDSISGGYYWSWIRQSPGKGLEWIGLIYGSTADTRYNPSLKGRVTISKDTSKNQLSLQLRSVTAADTAVYYCARSGYNFWSGEYYGLDSWGQGAVVTVSS VL: AIQLTQSPSSLSAYVGDKVTITCHASQGINSWLAWYQQKPGKAPKLLIYKASSLLSGVPSRFSGSGSGTDYTLTISSLQSEDFASYYCLQYDSAPLAFGPGTKLDIK | – | binds | binds
